Measurements taken from publication PMC3072266.

Target: 3AB wild type (poliovirus type 1 (Mahoney), UniProt P03300 1457-1565)
Experiment: EMSA

Chain of 3AB wild type (P03300 1457-1565): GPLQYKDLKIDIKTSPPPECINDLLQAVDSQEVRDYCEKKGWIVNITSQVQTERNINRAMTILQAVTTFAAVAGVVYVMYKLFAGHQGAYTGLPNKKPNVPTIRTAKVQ

B1: 40-mer RNA (ssRNA)
RNA: GAGUGCACCAUAUGCCAUUCAGGCUACGCAACUGUUGGGA
**Q.** Does B1 bind?
**A.** Result: binds
